Data from PMC4551533, “Selection of DNA aptamers for ovarian cancer biomarker HE4 using CE-SELEX and high-throughput sequencing”.

T1: HE4-GST (human) (UniProt Q14508)
T1 sequence: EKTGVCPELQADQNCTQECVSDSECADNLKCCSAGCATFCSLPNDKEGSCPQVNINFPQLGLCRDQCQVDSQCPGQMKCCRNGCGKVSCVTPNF

T2: HE4-GST (human, UniProt Q14508 31-124)
T2 sequence: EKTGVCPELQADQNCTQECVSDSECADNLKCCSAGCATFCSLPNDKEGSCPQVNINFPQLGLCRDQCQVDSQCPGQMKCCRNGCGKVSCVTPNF


What was measured:
HE4-GST (human) = target: T1, HE4-GST (human); test: fluorescence anisotropy; settings: TGK: 25 mM Tris, 192 mM glycine, 5 mM KH2PO4, pH 8.3, 25 C, no divalent cations; APCE 10 nM DNA, 1 mg/mL BSA; anisotropy 0.1 mg/mL BSA, HE4-GST 0-750 nM
HE4-GST [1] = target: T2, HE4-GST; test: fluorescence anisotropy; TGK: 25 mM Tris, 192 mM glycine, 5 mM KH2PO4, pH 8.3, 25 C, no divalent cations; APCE 10 nM DNA, 1 mg/mL BSA; anisotropy 0.1 mg/mL BSA, HE4-GST 0-750 nM; settings: protein: commercial; tags: GST; label: 5' FAM (APCE); 5' TEX615 (anisotropy)
HE4-GST [2] = target: T2, HE4-GST; test: affinity probe capillary electrophoresis; TGK: 25 mM Tris, 192 mM glycine, 5 mM KH2PO4, pH 8.3, 25 C, no divalent cations; APCE 10 nM DNA, 1 mg/mL BSA; anisotropy 0.1 mg/mL BSA, HE4-GST 0-750 nM; settings: protein: commercial; tags: GST; label: 5' FAM (APCE); 5' TEX615 (anisotropy)
HE4-GST [3] = target: T2, HE4-GST; test: affinity probe capillary electrophoresis; discrepant with anisotropy; TGK: 25 mM Tris, 192 mM glycine, 5 mM KH2PO4, pH 8.3, 25 C, no divalent cations; APCE 10 nM DNA, 1 mg/mL BSA; anisotropy 0.1 mg/mL BSA, HE4-GST 0-750 nM; settings: protein: commercial; tags: GST; label: 5' FAM (APCE); 5' TEX615 (anisotropy)

| Molecule | Kd (HE4-GST (human)) | Kd (HE4-GST [1]) | Kd (HE4-GST [2]) | Kd (HE4-GST [3]) |
| --- | --- | --- | --- | --- |
| ATGGTCGCAAGAACTGAGAATTTAC [D3] | 26000 nM | – | – | – |
| CAGTGCGTGCTTATTGGCGTAGCGTC (ssDNA) [B10] | – | 280 nM | 870 nM | – |
| CCGTCTTCTGCTTGAAAAAAAAAAA (ssDNA) [L1] | – | – | – | 300 nM |
| TTATCGTACGACAGTCATCCTACAC (ssDNA) [A1] | – | 2200 nM | 390 nM | – |
| CACAGTGCGTCACATTTAGGGCATT (ssDNA) [A3] | – | 9100 nM | 500 nM | – |
